From patent publication US20210317480

Assays:
[1] = test system: T1, G8PEX from bacteriophage f1
T1 sequence: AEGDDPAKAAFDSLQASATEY

[2] = test system: T2, G8PEX ortholog peptide from L. monocytogenes (strain M7) bacteriophage M7
T2 sequence: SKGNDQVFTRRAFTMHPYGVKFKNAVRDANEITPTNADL

[3] = test system: T3, G8PEX, extracellular region of the major coat protein G8P from bacteriophage M13
T3 sequence: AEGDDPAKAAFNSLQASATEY

[4] = test system: T4, G8PEX from bacteriophage I2-2
T4 sequence: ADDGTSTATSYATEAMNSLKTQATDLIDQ

[5] = test system: T5, G8PEX from Pseudomonas phage Pf1
T5 sequence: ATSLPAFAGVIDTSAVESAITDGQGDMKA

Streptococcus pyogenes Cas9 nuclease (SpCas9)
in vitro cleavage activity of SpCas9 [1]: could efficiently inhibit the cleavage activity of SpCas9 in vitro
DNA cleavage activity of SpCas9 [2]: efficiently prohibited SpCas9 to bind to sgRNA (FIG. 7d) or cleave DNA substrate (FIG. 7e)
in vitro DNA cleavage by pre-assembled Cas9 RNP [3]: the activity of pre-assembled Cas9 RNP was not affected by G8PEX
in vitro cleavage activity of SpCas9 [3]: could efficiently inhibit the cleavage activity of SpCas9 in vitro
in vitro cleavage activity of SpCas9 [4]: could efficiently inhibit the cleavage activity of SpCas9 in vitro
in vitro cleavage activity of SpCas9 [5]: could efficiently inhibit the cleavage activity of SpCas9 in vitro
